Measured values from doi:10.1101/2021.05.10.443404.

How the values were obtained:
[1] = target: (RBD(319-541)-CHO)2 (SARS-CoV-2) (UniProt P0DTC2); experiment: SDS-PAGE
[2] = target: RBD(319-541)-HEK_A3 (SARS-CoV-2) (UniProt P0DTC2); experiment: SDS-PAGE

Substance | stoichiometry N [1] | percent of the preparation as dimer [2] [%] | stoichiometry N [2]
(RBD(319-541)-CHO)2 (from UniProt P0DTC2 319-541) (domain or fragment) | 2 | – | –
RBD(319-541)-HEK_A3 (from UniProt P0DTC2 319-541) (domain or fragment) | – | 13 | 2
